Data taken from article PMC13022406, “Amino acid and viral binding by the high-affinity Cationic Amino acid Transporter 1 (CAT1) from Mus musculus” (Nature Communications, 2026).

B1: Cationic Amino acid Transporter 1 (CAT1) from Mus musculus, purified (receptor)
chain: not shown
modifications: N-linked glycans at Asn223 and Asn229
B2: Friend Murine Leukemia Virus receptor binding domain (domain or fragment, UniProt P03390 35-270, looked up)
chain: AAPGSSPHQVYNITWEVTNGDRETVWAISGNHPLWTWWPVLTPDLCMLALSGPPHWGLEYQAPYSSPPGPPCCSGSSGSSAGCSRDCDEPLTSLTPRCNTAWNRLKLDQVTHKSSEGFYVCPGSHRPREAKSCGGPDSFYCASWGCETTGRVYWKPSSSWDYITVDNNLTTSQAVQVCKDNKWCNPLAIQFTNAGKQVTSWTTGHYWGLRLYVSGRDPGLTFGIRLRYQNLGPRVP
modifications: N-linked glycans at Asn46 and Asn202
notes: the previously crystallized construct (PDB 1AOL); Residues 43-265 were built in the cryo-EM model; also called FrMLV-RBD; source: adherent HEK293T cells (lentiviral expression), secreted, purified (Ni-NTA, SEC)

How the values were obtained:
[1] = molecular target: B2; assay: BLI; MmCAT1 (100 nM, twin-strep and GFP tag) loaded on Strep-Tactin XT probes (Gator Pivot); FrMLV-RBD at 2.7 uM, 900, 300, 100 and 33.3 nM; 25 mM HEPES pH 7.5, 125 mM NaCl, 0.003% LMNG, 0.0006% CHS; room temperature; 5 min association, 5 min dissociation; settings: both partners purified
[2] = molecular target: B1; assay: cryo-EM structure; MmCAT1:FrMLV-RBD complex purified by SEC in LMNG/CHS; apo and with 34 mM arginine, 20 mM lysine or 20 mM ornithine; settings: both partners purified

Question: With B1 as the binder, how does the Kd [1] read?
Answer: The Kd was 9.7 nM.

Question: With B2 as the binder, how does the “stoichiometry N” value [2] read?
Answer: Its value is 1.
